In patent US20220026429A1, “COMPOSITIONS AND METHODS OF ALTERING A NUCLEIC ACID WITH RIBONUCLEASE” (The Research Foundation for the State University of New York, priority 2020, published 2022):

Tests used:
RNase H = target: T1, RNase H (Escherichia coli, UniProt P0A7Y4); assay: DNA nanoswitch RNase H inhibition assay (gel readout); type: biochemical; conditions: nanoswitch incubated with different concentrations of kanamycin, then RNase H (0.5 U) added; FIG. 4F; read-out: IC50 value, inhibition of the RNA cleavage activity of RNase H
T1 construct: purchased New England Biolabs (NEB)
T1 sequence (P0A7Y4 whole entry): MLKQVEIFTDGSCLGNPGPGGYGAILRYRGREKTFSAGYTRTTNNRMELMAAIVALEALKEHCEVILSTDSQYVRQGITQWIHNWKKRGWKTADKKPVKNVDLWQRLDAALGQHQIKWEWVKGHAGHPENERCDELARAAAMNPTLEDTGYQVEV
Description: (§1) Locked nanoswitches, such as DNA-nanoswitch-nucleic acid constructs were first mixed with RNase H buffer (1× final) and placed at 37° C. 1 μl of RNase H (different units/μl) was added to 10 μl of locked nanoswitches such as DNA-nanoswitch-nucleic acid constructs and incubated at 37° C. For sensitivity experiments, samples were incubated for 1 hour at 37° C. For time series experiments, RNase H enzyme was added at different time points (from 16 mins to 0 min). After incubation, samples were mixed with 1 μl GelRed (1×final) and 2 μl loading dye (15% Ficoll, 0.1% bromophenol blue), and run on 0.8% agarose gels. A similar protocol was used for the other enzymes.
(§2) Nanoswitches were run in 0.8% agarose gels, cast from molecular biology grade agarose (Fisher BioReagents) dissolved in 0.5×Tris-borate EDTA (TBE). Gels were typically run at 75 V (constant voltage) at room temperature. Samples were pre-stained by mixing 1× GelRed stain with the samples before loading. Gels were imaged with a Bio-Rad Gel Doc XR+gel imager and analyzed using ImageJ.
Next, the potential of assays of the present disclosure was tested for screening RNase H inhibitors. […] To further make a rapid readout, a start-to-finish assay was performed within 15 mins, by incubating the nanoswitches with RNase H for 5 mins followed by agarose gel electrophoresis for 10 mins (FIG. 4G). […]

[1] = test system: locked nanoswitches (RNA lock strand); assay: DNA nanoswitch RNase activity assay, panel of RNases; type: biochemical; conditions: agarose gel readout, FIG. 4E
Description: as §1, §2
As a step toward testing ribonuclease presence in biological samples, a known concentration of RNase H was spiked into fetal bovine serum (FBS) and cell lysates extracted from human (HeLa) and murine (C2C12) cell lines. RNase detection was preserved in 10% FBS and cell lysates with the unlocking of the DNA nanoswitch in both biofluids (FIGS. 4B-4C).

Molecule	IC50 (RNase H)	response of the locked nanoswitches (unlooping) to RNases [1]
NC[C@H]1O[C@H](O[C@H]2[C@H](O)[C@@H](O[C@H]3O[C@H](CO)[C@@H](O)[C@H](N)[C@H]3O)[C@H](N)C[C@@H]2N)[C@H](O)[C@@H](O)[C@@H]1O [kanamycin]	30.6 mM	–
RNase T: ribonuclease enzyme purchased from New England Biolabs (protein, UniProt P30014 1-215, looked up) Ribonuclease T: MSDNAQLTGLCDRFRGFYPVVIDVETAGFNAKTDALLEIAAITLKMDEQGWLMPDTTLHFHVEPFVGANLQPEALAFNGIDPNDPDRGAVSEYEALHEIFKVVRKGIKASGCNRAIMVAHNANFDHSFMMAAAERASLKRNPFHPFATFDTAALAGLALGQTVLSKACQTAGMDFDSTQAHSALYDTERTAVLFCEIVNRWKRLGGWPLSAAEEV	–	no activity
RNase A: endonucleases from Enzyme Class EC 3.1.27.5 (protein, UniProt P61823 27-150, looked up) Ribonuclease pancreatic: KETAAAKFERQHMDSSTSAASSSNYCNQMMKSRNLTKDRCKPVNTFVHESLADVQAVCSQKNVACKNGQTNCYQSYSTMSITDCRETGSSKYPNCAYKTTQANKHIIVACEGNPYVPVHFDASV	–	high levels of unlooping
